# What was measured:
# HLA-B*58:01 [1] = test: IEDB peptide-MHC binding, purified MHC/competitive/radioactivity; filed as Kd, often an IC50 or EC50 that approximates it; ≥ and ≤ were set here for values at or beyond the usual limits of such assays
# HLA-B*57:01 [2] = test: as above
# HLA-B*51:01 = test: IEDB peptide-MHC binding, purified MHC/competitive/fluorescence; filed as Kd, often an IC50 or EC50 that approximates it; ≥ and ≤ were set here for values at or beyond the usual limits of such assays
# HLA-B*46:01 [3] = test: as above
# HLA-A*69:01 [4] = test: as above; conditions: source organism: Bos taurus
# HLA-A*29:02 [5] = test: as above; conditions: source organism: Bos taurus
# HLA-B*18:01 [6] = test: as above
# HLA-A*26:01 [7] = test: as above
# HLA-A*68:02 [8] = test: as above; conditions: source organism: Bos taurus
# HLA-A*03:01 [9] = test: as above; conditions: source organism: Bos taurus
# HLA-B*39:01 [10] = test: as above
# HLA-B*57:01 [11] = test: as above
# HLA-B*27:03 = test: as above
# HLA-B*15:17 = test: as above
# HLA-A*24:03 = test: as above; conditions: source organism: Bos taurus
# HLA-A*02:01 [12] = test: as above; conditions: source organism: Bos taurus
# HLA-B*46:01 [13] = test: IEDB peptide-MHC binding, purified MHC/direct/fluorescence; filed as Kd, often an IC50 or EC50 that approximates it; ≥ and ≤ were set here for values at or beyond the usual limits of such assays
# HLA-B*15:01 = test: as above
# HLA-B*07:02 = test: as above
# HLA-B*27:05 = test: as above
# HLA-B*58:01 [14] = test: as above
# HLA-A*03:01 [15] = test: as above
# HLA-B*39:01 [16] = test: as above
# HLA-A*31:01 = test: as above
# HLA-B*57:01 [17] = test: as above
# HLA-A*11:01 = test: as above
# HLA-B*44:02 = test: as above
# HLA-A*01:01 [18] = test: as above
# HLA-A*02:03 [19] = test: IEDB peptide-MHC binding, purified MHC/competitive/fluorescence; filed as Kd, often an IC50 or EC50 that approximates it; ≥ and ≤ were set here for values at or beyond the usual limits of such assays; conditions: source organism: Human immunodeficiency virus 1
# HLA-A*30:01 = test: as above; conditions: source organism: Human immunodeficiency virus 1
# HLA-A*69:01 [20] = test: IEDB peptide-MHC binding, purified MHC/direct/fluorescence; filed as Kd, often an IC50 or EC50 that approximates it; ≥ and ≤ were set here for values at or beyond the usual limits of such assays
# HLA-B*08:01 = test: as above; conditions: source organism: Influenza A virus (A/camel/Mongolia/1982(H1N1))
# HLA-B*15:09 = test: as above
# HLA-B*40:01 = test: as above; conditions: source organism: Influenza A virus (A/camel/Mongolia/1982(H1N1))
# HLA-A*02:01 [21] = test: as above
# HLA-A*29:02 [22] = test: as above
# HLA-B*18:01 [23] = test: as above; conditions: source organism: Mycobacterium tuberculosis
# HLA-A*26:01 [24] = test: IEDB peptide-MHC binding, purified MHC/competitive/radioactivity; filed as Kd, often an IC50 or EC50 that approximates it; ≥ and ≤ were set here for values at or beyond the usual limits of such assays; conditions: source organism: Dengue virus 1 Brazil/97-11/1997
# HLA-A*68:02 [25] = test: as above; conditions: source organism: Dengue virus 1 Brazil/97-11/1997
# HLA-A*01:01 [26] = test: as above; conditions: source organism: Dengue virus 1 Brazil/97-11/1997
# HLA-A*26:01 [27] = test: IEDB peptide-MHC binding, purified MHC/direct/fluorescence; filed as Kd, often an IC50 or EC50 that approximates it; ≥ and ≤ were set here for values at or beyond the usual limits of such assays; conditions: source organism: Orthohantavirus negraense
# HLA-A*02:03 [28] = test: as above; conditions: source organism: Orthohantavirus negraense
# [29] = source organism: Dengue virus 2 Jamaica/1409/1983
# [30] = source organism: Dengue virus 3 Martinique/1243/1999
# [31] = source organism: Tai Forest ebolavirus
# [32] = source organism: Tai Forest virus - Cote d'Ivoire, Cote d'Ivoire, 1994
# [33] = source organism: Dengue virus 1 Brazil/97-11/1997
# [34] = source organism: Influenza A virus (A/camel/Mongolia/1982(H1N1))
# [35] = source organism: Mycobacterium tuberculosis
# [36] = source organism: West Nile virus
# [37] = source organism: Orthohantavirus negraense
sequence,measurement,setting,value
RAVHADMGYW,Kd,HLA-B*58:01 [1]; [29],0.000235 µM
PTAGVLARW,Kd,HLA-B*57:01 [2]; [30],0.0297 µM
KLGEGFKSL,Kd,HLA-B*51:01; source organism: Bos taurus,≥ 20 µM
same,Kd,HLA-B*46:01 [3]; source organism: Bos taurus,≥ 20 µM
same,Kd,HLA-A*69:01 [4],≥ 20 µM
same,Kd,HLA-A*29:02 [5],≥ 20 µM
same,Kd,HLA-B*18:01 [6]; source organism: Bos taurus,≥ 20 µM
same,Kd,HLA-A*26:01 [7]; source organism: Bos taurus,≥ 20 µM
same,Kd,HLA-A*68:02 [8],≥ 20 µM
same,Kd,HLA-A*03:01 [9],≥ 20 µM
same,Kd,HLA-B*39:01 [10]; source organism: Bos taurus,≥ 20 µM
same,Kd,HLA-B*57:01 [11]; source organism: Bos taurus,≥ 20 µM
same,Kd,HLA-B*27:03; source organism: Bos taurus,≥ 20 µM
same,Kd,HLA-B*15:17; source organism: Bos taurus,≥ 20 µM
same,Kd,HLA-A*24:03,≥ 20 µM
same,Kd,HLA-A*02:01 [12],0.0151 µM
FAEGVIAFL,Kd,HLA-B*18:01 [6]; [31],≥ 20 µM
same,Kd,HLA-A*26:01 [7]; [31],≥ 20 µM
same,Kd,HLA-B*27:03; [31],≥ 20 µM
same,Kd,HLA-B*46:01 [13]; [32],≥ 20 µM
same,Kd,HLA-B*15:01; [32],≥ 20 µM
same,Kd,HLA-B*07:02; [32],≥ 20 µM
same,Kd,HLA-B*27:05; [32],≥ 20 µM
same,Kd,HLA-B*58:01 [14]; [32],≥ 20 µM
same,Kd,HLA-A*03:01 [15]; [32],≥ 20 µM
same,Kd,HLA-B*39:01 [16]; [32],0.539 µM
same,Kd,HLA-A*31:01; [32],≥ 20 µM
same,Kd,HLA-B*57:01 [17]; [32],≥ 20 µM
same,Kd,HLA-A*11:01; [32],≥ 20 µM
same,Kd,HLA-B*44:02; [32],≥ 20 µM
same,Kd,HLA-A*01:01 [18]; [32],≥ 20 µM
STSLSMTCIA,Kd,HLA-B*57:01 [2]; [33],2.08 µM
VASEGIKYTD,Kd,HLA-B*58:01 [1]; [30],0.34 µM
same,Kd,HLA-B*57:01 [2]; [30],5.16 µM
EKLKSLYNTV,Kd,HLA-A*02:03 [19],0.643 µM
same,Kd,HLA-B*39:01 [10]; source organism: Human immunodeficiency virus 1,2.81 µM
same,Kd,HLA-A*30:01,0.175 µM
HIPEVCLKW,Kd,HLA-B*46:01 [13]; [34],≥ 20 µM
same,Kd,HLA-A*69:01 [20]; [34],≥ 20 µM
same,Kd,HLA-B*15:01; [34],≥ 20 µM
same,Kd,HLA-B*07:02; [34],≥ 20 µM
same,Kd,HLA-B*08:01,≥ 20 µM
same,Kd,HLA-B*27:05; [34],≥ 20 µM
same,Kd,HLA-B*58:01 [14]; [34],0.121 µM
same,Kd,HLA-A*03:01 [15]; [34],≥ 20 µM
same,Kd,HLA-B*15:09; source organism: Influenza A virus H3N2,≥ 20 µM
same,Kd,HLA-A*31:01; [34],≥ 20 µM
same,Kd,HLA-B*40:01,≥ 20 µM
same,Kd,HLA-A*02:01 [21]; [34],≥ 20 µM
same,Kd,HLA-B*44:02; [34],≥ 20 µM
same,Kd,HLA-A*01:01 [18]; [34],≥ 20 µM
EKAAWGVAL,Kd,HLA-B*46:01 [13]; [35],≥ 20 µM
same,Kd,HLA-A*69:01 [20]; [35],≥ 20 µM
same,Kd,HLA-A*29:02 [22]; [35],≥ 20 µM
same,Kd,HLA-B*18:01 [23],≥ 20 µM
same,Kd,HLA-B*15:01; [35],≥ 20 µM
same,Kd,HLA-B*27:05; [35],≥ 20 µM
same,Kd,HLA-A*03:01 [15]; [35],≥ 20 µM
same,Kd,HLA-B*39:01 [16]; [35],0.052 µM
same,Kd,HLA-A*31:01; [35],≥ 20 µM
same,Kd,HLA-B*57:01 [17]; [35],≥ 20 µM
same,Kd,HLA-A*11:01; [35],≥ 20 µM
same,Kd,HLA-A*02:01 [21]; [35],≥ 20 µM
same,Kd,HLA-B*44:02; [35],≥ 20 µM
same,Kd,HLA-A*01:01 [18]; [35],≥ 20 µM
IASAIVLEFF,Kd,HLA-B*58:01 [1]; [30],0.021 µM
same,Kd,HLA-B*57:01 [2]; [30],0.883 µM
KSIEDNPEI,Kd,HLA-B*58:01 [1]; [29],0.00548 µM
TTSGTYVSAI,Kd,HLA-A*26:01 [24],17 µM
same,Kd,HLA-A*68:02 [25],0.0205 µM
same,Kd,HLA-B*57:01 [2]; [33],0.179 µM
same,Kd,HLA-A*01:01 [26],≥ 70.4 µM
GAVFQEEQGW,Kd,HLA-B*58:01 [1]; source organism: Dengue virus 4 Philippines/H241/1956,0.0185 µM
GRGPIRFVL,Kd,HLA-B*46:01 [13]; [36],≥ 20 µM
same,Kd,HLA-A*69:01 [20]; [36],≥ 20 µM
same,Kd,HLA-A*29:02 [22]; [36],≥ 20 µM
same,Kd,HLA-B*15:01; [36],≥ 20 µM
same,Kd,HLA-B*07:02; [36],≥ 20 µM
same,Kd,HLA-B*58:01 [14]; [36],≥ 20 µM
same,Kd,HLA-A*03:01 [15]; [36],≥ 20 µM
same,Kd,HLA-B*15:09; [36],≥ 20 µM
same,Kd,HLA-A*31:01; [36],≥ 20 µM
same,Kd,HLA-B*57:01 [17]; [36],≥ 20 µM
same,Kd,HLA-A*11:01; [36],≥ 20 µM
same,Kd,HLA-A*02:01 [21]; [36],≥ 20 µM
same,Kd,HLA-B*44:02; [36],≥ 20 µM
same,Kd,HLA-A*01:01 [18]; [36],≥ 20 µM
NIYETEFFM,Kd,HLA-B*51:01; [37],≥ 20 µM
same,Kd,HLA-B*46:01 [3]; [37],≥ 20 µM
same,Kd,HLA-B*18:01 [6]; [37],≥ 20 µM
same,Kd,HLA-B*39:01 [10]; [37],≥ 20 µM
same,Kd,HLA-B*57:01 [11]; [37],≥ 20 µM
same,Kd,HLA-B*27:03; [37],≥ 20 µM
same,Kd,HLA-B*15:17; [37],≥ 20 µM
same,Kd,HLA-A*26:01 [27],1.11 µM
same,Kd,HLA-A*02:03 [28],≥ 20 µM
same,Kd,HLA-A*03:01 [15]; [37],≥ 20 µM
YRKEQQNAV,Kd,HLA-B*39:01 [16]; source organism: Influenza A virus (A/Belfast/53582/2004(H3N?)),0.62 µM
